Biological target: T1, human RXFP1 (human, UniProt Q9HBX9 1-757)
T1 sequence (looked up): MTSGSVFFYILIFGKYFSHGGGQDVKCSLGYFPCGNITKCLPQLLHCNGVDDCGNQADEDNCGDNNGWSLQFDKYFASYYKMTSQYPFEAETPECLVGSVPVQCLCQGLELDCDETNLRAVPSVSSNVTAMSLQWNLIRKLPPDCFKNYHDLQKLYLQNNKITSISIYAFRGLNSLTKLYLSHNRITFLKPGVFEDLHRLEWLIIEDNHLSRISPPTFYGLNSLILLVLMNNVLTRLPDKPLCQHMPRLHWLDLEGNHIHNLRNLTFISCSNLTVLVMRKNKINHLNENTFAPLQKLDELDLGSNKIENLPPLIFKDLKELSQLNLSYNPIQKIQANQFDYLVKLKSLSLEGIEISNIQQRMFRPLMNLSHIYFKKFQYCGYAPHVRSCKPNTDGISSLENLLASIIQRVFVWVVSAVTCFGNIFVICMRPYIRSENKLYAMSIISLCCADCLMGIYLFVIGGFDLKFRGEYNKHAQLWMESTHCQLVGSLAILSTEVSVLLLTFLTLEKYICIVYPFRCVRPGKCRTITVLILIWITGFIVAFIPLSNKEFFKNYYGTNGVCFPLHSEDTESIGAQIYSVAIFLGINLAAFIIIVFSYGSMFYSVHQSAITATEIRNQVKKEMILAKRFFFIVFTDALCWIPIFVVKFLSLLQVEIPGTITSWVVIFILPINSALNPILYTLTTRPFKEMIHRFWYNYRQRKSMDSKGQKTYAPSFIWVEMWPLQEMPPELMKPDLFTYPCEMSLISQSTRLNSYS
Assay: cell-based or functional assay

B1: SEQ ID NO: 361 (Fc fusion)
chain: DKTHTCPPCPAPEAAGGPSVFLFPPKPKDTLMISRTPEVTCVVVDVSHEDPEVKFNWYVDGVEVHNAKTKPREEQYNSTYRVVSVLTVLHQDWLNGKEYKCKVSNKALAAPIEKTISKAKGQPREPQVYTLPPSRDELTKNQVSLTCLVKGFYPSDIAVEWESNGQPENNYKTTPPVLDSDGSFFLYSKLTVDKSRWQQGNVFSCSVLHEALHSHYTQKSLSLSPGKGGSDSWKEEVIKLCGRELVRAQIAICGKSTGGGEGGGEGGGEGRQLYSALANKCCHVGCTKRSLARFC
With B1 the “Potency (cAMP, transient hRXFP1 in HEK293)” value (shortened to “Potency”) was 2.5 nM.

B2: SEQ ID NO: 362 (Fc fusion)
chain: DKTHTCPPCPAPEAAGGPSVFLFPPKPKDTLMISRTPEVTCVVVDVSHEDPEVKFNWYVDGVEVHNAKTKPREEQYNSTYRVVSVLTVLHQDWLNGKEYKCKVSNKALAAPIEKTISKAKGQPREPQVYTLPPSRDELTKNQVSLTCLVKGFYPSDIAVEWESNGQPENNYKTTPPVLDSDGSFFLYSKLTVDKSRWQQGNVFSCSVLHEALHSHYTQKSLSLSPGKGGSDSWKEEVIKLCGRELVRAQIAICGKSTGGGEGGGEGGGEGGGQLYSALANKCCHVGCTKRSLARFC
With B2 the “Potency” value was 12.3 nM.

B3: SEQ ID NO: 363 (Fc fusion)
chain: DKTHTCPPCPAPEAAGGPSVFLFPPKPKDTLMISRTPEVTCVVVDVSHEDPEVKFNWYVDGVEVHNAKTKPREEQYNSTYRVVSVLTVLHQDWLNGKEYKCKVSNKALAAPIEKTISKAKGQPREPQVYTLPPSRDELTKNQVSLTCLVKGFYPSDIAVEWESNGQPENNYKTTPPVLDSDGSFFLYSKLTVDKSRWQQGNVFSCSVLHEALHSHYTQKSLSLSPGKGGSDSWMEEVIKLCGRELVRAQIAICGKSTGGGEGGGEGGGEGRQLYSALANKCCHVGCTKRSLARFC
For B3, the “Potency” value was 2.9 nM.

B4: SEQ ID NO: 304 (Fc fusion)
chain: DKTHTCPPCPAPEAAGGPSVFLFPPKPKDTLMISRTPEVTCVVVDVSHEDPEVKFNWYVDGVEVHNAKTKPREEQYNSTYRVVSVLTVLHQDWLNGKEYKCKVSNKALAAPIEKTISKAKGQPREPQVYTLPPSRDELTKNQVSLTCLVKGFYPSDIAVEWESNGQPENNYKTTPPVLDSDGSFFLYSKLTVDKSRWQQGNVFSCSVLHEALHSHYTQKSLSLSPGKGGSDSWQEEVIKLCGRELVRAQIAICGKSTGGGEGGGEGGGEGRQLYSALANKCCHVGCTKRSLARFC
For B4, the “Potency” value was 2.5 nM.

B5: SEQ ID NO: 364 (Fc fusion)
chain: DKTHTCPPCPAPEAAGGPSVFLFPPKPKDTLMISRTPEVTCVVVDVSHEDPEVKFNWYVDGVEVHNAKTKPREEQYNSTYRVVSVLTVLHQDWLNGKEYKCKVSNKALAAPIEKTISKAKGQPREPQVYTLPPSRDELTKNQVSLTCLVKGFYPSDIAVEWESNGQPENNYKTTPPVLDSDGSFFLYSKLTVDKSRWQQGNVFSCSVLHEALHSHYTQKSLSLSPGKGGSDSWMEEVIKLCGRELVRAQIAICGKSTGGGEGGGEGGGEGGGQLYSALANKCCHVGCTKRSLARFC
B5 was tested, and the “Potency” value was 16 nM.

B6: SEQ ID NO: 307 (Fc fusion)
chain: DKTHTCPPCPAPEAAGGPSVFLFPPKPKDTLMISRTPEVTCVVVDVSHEDPEVKFNWYVDGVEVHNAKTKPREEQYNSTYRVVSVLTVLHQDWLNGKEYKCKVSNKALAAPIEKTISKAKGQPREPQVYTLPPSRDELTKNQVSLTCLVKGFYPSDIAVEWESNGQPENNYKTTPPVLDSDGSFFLYSKLTVDKSRWQQGNVFSCSVLHEALHSHYTQKSLSLSPGKGGSDSWQEEVIKLCGRELVRAQIAICGKSTGGGEGGGEGGGEGGGQLYSALANKCCHVGCTKRSLARFC
With B6 the “Potency” value was 15.8 nM.

B7: SEQ ID NO: 365 (Fc fusion)
chain: DKTHTCPPCPAPEAAGGPSVFLFPPKPKDTLMISRTPEVTCVVVDVSHEDPEVKFNWYVDGVEVHNAKTKPREEQYNSTYRVVSVLTVLHQDWLNGKEYKCKVSNKALAAPIEKTISKAKGQPREPQVYTLPPSRDELTKNQVSLTCLVKGFYPSDIAVEWESNGQPENNYKTTPPVLDSDGSFFLYSKLTVDKSRWQQGNVFSCSVLHEALHSHYTQKSLSLSPGKGGSDSWMEEVIKLCGRELVRAQIAICGKSTGGEGGGEEGGGEGGQLYSALANKCCHVGCTKRSLARFC
In the case of B7, the “Potency” value is reported as 60.3 nM.

B8: SEQ ID NO: 366 (Fc fusion)
chain: DKTHTCPPCPAPEAAGGPSVFLFPPKPKDTLMISRTPEVTCVVVDVSHEDPEVKFNWYVDGVEVHNAKTKPREEQYNSTYRVVSVLTVLHQDWLNGKEYKCKVSNKALAAPIEKTISKAKGQPREPQVYTLPPSRDELTKNQVSLTCLVKGFYPSDIAVEWESNGQPENNYKTTPPVLDSDGSFFLYSKLTVDKSRWQQGNVFSCSVLHEALHSHYTQKSLSLSPGKGGSDSWQEEVIKLCGRELVRAQIAICGKSTGGEGGGEEGGGEGGQLYSALANKCCHVGCTKRSLARFC
With B8 the “Potency” value was 62.8 nM.

B9: SEQ ID NO: 368 (Fc fusion)
chain: DKTHTCPPCPAPEAAGGPSVFLFPPKPKDTLMISRTPEVTCVVVDVSHEDPEVKFNWYVDGVEVHNAKTKPREEQYNSTYRVVSVLTVLHQDWLNGKEYKCKVSNKALAAPIEKTISKAKGQPREPQVYTLPPSRDELTKNQVSLTCLVKGFYPSDIAVEWESNGQPENNYKTTPPVLDSDGSFFLYSKLTVDKSRWQQGNVFSCSVLHEALHSHYTQKSLSLSPGGGSDSWQEEVIKLCGRELVRAQIAICGKSTGGEGGGEEGGGEGGQLYSALANKCCHVGCTKRSLARFC
For B9, the “Potency” value was 101 nM.

B10: SEQ ID NO: 369 (Fc fusion)
chain: DKTHTCPPCPAPEAAGGPSVFLFPPKPKDTLMISRTPEVTCVVVDVSHEDPEVKFNWYVDGVEVHNAKTKPREEQYNSTYRVVSVLTVLHQDWLNGKEYKCKVSNKALAAPIEKTISKAKGQPREPQVYTLPPSRDELTKNQVSLTCLVKGFYPSDIAVEWESNGQPENNYKTTPPVLDSDGSFFLYSKLTVDKSRWQQGNVFSCSVLHEALHSHYTQKSLSLSPGKGGSDSWKEEVIKLCGRELVRAQIAICGKSTASDAAGANANAGARQLYSALANKCCHVGCTKRSLAQFC
For B10, the “Potency” value was 0.5 nM.

B11: SEQ ID NO: 370 (Fc fusion)
chain: DKTHTCPPCPAPEAAGGPSVFLFPPKPKDTLMISRTPEVTCVVVDVSHEDPEVKFNWYVDGVEVHNAKTKPREEQYNSTYRVVSVLTVLHQDWLNGKEYKCKVSNKALAAPIEKTISKAKGQPREPQVYTLPPSRDELTKNQVSLTCLVKGFYPSDIAVEWESNGQPENNYKTTPPVLDSDGSFFLYSKLTVDKSRWQQGNVFSCSVLHEALHSHYTQKSLSLSPGKGGSDSWKEEVIKLCGRELVRAQIAICGKSTASDAAGANANAGARQLYSALANKCCHVGCTKRSLAEFC
B11 was tested, and the “Potency” value was 1.8 nM.

B12: SEQ ID NO: 315 (Fc fusion)
chain: DKTHTCPPCPAPEAAGGPSVFLFPPKPKDTLMISRTPEVTCVVVDVSHEDPEVKFNWYVDGVEVHNAKTKPREEQYNSTYRVVSVLTVLHQDWLNGKEYKCKVSNKALAAPIEKTISKAKGQPREPQVYTLPPSRDELTKNQVSLTCLVKGFYPSDIAVEWESNGQPENNYKTTPPVLDSDGSFFLYSKLTVDKSRWQQGNVFSCSVLHEALHSHYTQKSLSLSPGGGSDSWQEEVIKLCGRELVRAQIAICGKSTGGGEGGGEGGGEGRQLYSALANKCCHVGCTKRSLARFC
For B12, the “Potency” value was 3.3 nM.

Source: patent publication US20250333467A1 (TECTONIC OPERATING, published 2025)
